# Source: IntAct's records for PubMed 24121231
# Biological target: not2_yeast CDC36 (UniProt P06100)
# UniProt P06100, sequence (P06100 whole entry): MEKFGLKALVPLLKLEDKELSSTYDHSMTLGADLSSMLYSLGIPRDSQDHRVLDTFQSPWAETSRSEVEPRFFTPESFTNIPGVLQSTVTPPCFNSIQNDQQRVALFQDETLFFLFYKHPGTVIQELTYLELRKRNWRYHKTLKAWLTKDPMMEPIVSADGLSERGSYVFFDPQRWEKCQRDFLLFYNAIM
row,effect of a mutation on the interaction,Substance
1,disrupting interaction strength,"General negative regulator of transcription subunit 1 (Saccharomyces cerevisiae), P25655 R1811E;L1814E"
2,disrupting interaction strength,"General negative regulator of transcription subunit 1 (Saccharomyces cerevisiae), P25655 F1751E"
